{"source": "the nanobody polyreactivity screen of Harvey et al. (2022)", "data": [{"assay": "yeast display, Sf9 membrane polyspecificity reagent, FACS + sequencing; frameworks hold sequencing errors", "in_short": "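Galactose-induced (36–48 hours) yeast carrying a synthetic nanobody display library were exposed to 10% biotinylated, detergent-solubilized Sf9 membrane reagent at 4 °C for 1 hour. FACS followed streptavidin microbead enrichment, using low and high (top ~1%) gates for expression (anti-HA) and reagent binding (streptavidin). Colony PCR, MiSeq 2 × 250 sequencing and CDR-length filtering followed. Labels for polyreactivity reflect the gate of origin.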", "values": [{"sequence": "QVQLVESGGGLVQAGGSLRLSCAASGMTFHRYAMGWYRQTPGKERELVAAINYSGGRTYYADSVKGRFTISRDNAKNTVYLQMNSLKPEDTAVYYCAAPRASGYYWGQGTQVTVSS", "polyreactivity (PSR sort gate)": "high polyreactivity"}, {"sequence": "QVQLVESGGGLVQAGGSLRLSCAASGNIFAIYAMGWYIQAPGKEREFVAAIDWSVASTYYADSVKGRFTISRDNAKNTVYLQMNSLKPEDTAVYYCAAELYGLKYAYYLSYDYWGQGTQVTVSS", "polyreactivity (PSR sort gate)": "high polyreactivity"}, {"sequence": "QVQLVESGGGLVQAGGSLRLSCAASGNIFAWYAMGWYRQAPGKERELVADISSRGGSTYYADSVKGRFTISRDNAKITVYLQMNSLKPEDSAVYYCAAVWYWTQDYDYWGLGTQVTVSS", "polyreactivity (PSR sort gate)": "low polyreactivity"}, {"sequence": "QVQLVESGGGLVQAGGSLRLSCAASGNIFAWYAMGWYRQAPGKERELVADISSRGGSTYYADSVKGRFTISRDNAKNTVYLQMNRLKPEDTAVYYCAAVWYWTQDYDYWGQGTQVTVSS", "polyreactivity (PSR sort gate)": "low polyreactivity"}, {"sequence": "QVQLVESGGGLVQAGGSLRLSCAASGNIFAYYALGWYRQAPGKEREFVAAIRSSGVSTYYADSVKGRFTISRDNAKNTVYLQMNSLKPEDTAVYYCAADSITGGWLIVSPPYNYTYDYWGQGTQVTVSS", "polyreactivity (PSR sort gate)": "low polyreactivity"}, {"sequence": "QVQLVESGGGLVQAGGSLRLSCAASGNIFDGYAMGWYRQAPGKERELVAAITSSAGSTYYADSVKGRFTISRDNAKNTVYLQMNSLKPEDTAVYYCNKVTKYRPIEGSWGQGTQVTVSS", "polyreactivity (PSR sort gate)": "high polyreactivity"}, {"sequence": "QVQLVESGGGLVQAGGSLRLSCAASGNIFDRYAMGWYRQAPGKERELVAGITWSGGSTYYADSVKGRFTISRDNAKNTVYFQMTSLKPEDTAVYYCGKANYYWGQGTQVTVSS", "polyreactivity (PSR sort gate)": "low polyreactivity"}, {"sequence": "QVQLVESGGGLVQAGGSLRLSCAASGNIFDRYVMGWYRQAPGKERELVAAISVSGGSTYYADSVKGRFTISRDNAKNTVFLQMNSLKPEDTAVYYCAAHSRLINWYDYWGQGTQVTVSS", "polyreactivity (PSR sort gate)": "high polyreactivity"}, {"sequence": "QVQLVESGGGLVQAGGSLRLSCAASGNIFESYGMGWYRQAPGKERELVATINTSSGSTYYADSVKGRFTISRDNAKNTVYLQMNSLKPEDTAVSSCAGEWYPYAWGYGYWGQGTQVTVSS", "polyreactivity (PSR sort gate)": "low polyreactivity"}, {"sequence": "QVQLVESGGGLVQAGGSLRLSCAASGNIFFRNAMGWYRQAPGKERELVAAISWRGTSTYYADSVKGRFTISRDNAKNTVYLQMNSLKPEDTAVYYCAARGLWPYDYWGQGTQVTVSS", "polyreactivity (PSR sort gate)": "low polyreactivity"}, {"sequence": "QVQLVESGGGLVQAGGSLRLSCAASGNIFGFYTMGWYRQAPGKERELVAAIRSRGGSTNYADSVKGRFTISRDNAKNTVYLQMNSLKPEDTAVDYCAADPRYISYDYWGQGTQVTVSS", "polyreactivity (PSR sort gate)": "low polyreactivity"}, {"sequence": "QVQLVESGGGLVQAGGSLRLSCAASGNIFGVYTMGWYRQAPGKERELVAVITSGGRTYYADSVKGRFTISRDNAKNTVYLQMNSLKPADTAVYYCAADIRYTREEYWGQGPQVTVSS", "polyreactivity (PSR sort gate)": "high polyreactivity"}, {"sequence": "QVQLVESGGGLVQAGGSLRLSCAASGNIFGWYAMGWYRKAPGKERELVAAISSGGRTNYADSVKGRFTISRDYAKNTVYLQMNSLKPEDTAVYYCNKVAGVTGRYYYWGQGTQVTVSS", "polyreactivity (PSR sort gate)": "low polyreactivity"}, {"sequence": "QVQLVESGGGLVQAGGSLRLSCAASGNIFGYYAMGWYRQAPGKERELVAAIRTRGGRTYYADSVKGRFTISRDNAKNTVYLQMNSLKPEDTAVYYCAARSIAGFWRYDYWGQGTQVTVSS", "polyreactivity (PSR sort gate)": "high polyreactivity"}, {"sequence": "QVQLVESGGGLVQAGGSLRLSCAASGNIFGYYAMGWYRQAPGKERELVAAITTTGGSTYYADSVKGRFTISRDNAKNTVYLQMNSLKPEDTAVYYCAAETGYWYYYWGQGTLVTVSS", "polyreactivity (PSR sort gate)": "high polyreactivity"}, {"sequence": "QVQLVESGGGLVQAGGSLRLSCAASGNIFHFYAMGWYRQAPGKERELVATISWRGDGTYYADSVKGRFTISRDNAKYTVYLQMNSLKPEDTAVYYCAARGVWPEYDYWGQGTQVTVSS", "polyreactivity (PSR sort gate)": "low polyreactivity"}, {"sequence": "QVQLVESGGGLVQAGGSLRLSCAASGNIFIYNAMGWYRQAPGKERELVAAISVSGGDTYYADSVKGRFTISRDNAKNTVYLQMNSLKPEDTAVYYCAAEAEYIELDYWGQGTQVTVSS", "polyreactivity (PSR sort gate)": "low polyreactivity"}]}]}
